The text below walks through data of paper PMC3464217, “Anti-HIV Double Variable Domain Immunoglobulins Binding Both gp41 and gp120 for Targeted Delivery of Immunoconjugates” (PLoS ONE, 2012).

This test deals with T1, recombinant gp160 (HIV-1 group M subtype B, IIIB (clone …, UniProt P03375, strain)).
T1 construct: also called rgp160; source: bought: Quality Biological; recombinant, expressed in mammalian cells
Put plainly: SPR. The conditions noted are these: both partners purified.

B1: 7B2 (antibody, V domains shown)
VH: QVQLVQSGGGVFKPGGSLRLSCEASGFTFTEYYMTWVRQAPGKGLEWLAYISKNGEYSKYSPSSNGRFTISRDNAKNSVFLQLDRLSADDTAVYYCARADGLTYFSELLQYIFDLWGQGARVTVSS
VL: DIVMTQSPDSLAVSPGERATIHCKSSQTLLYSSNNRHSIAWYQQRPGQPPKLLLYWASMRLSGVPDRFSGSGSGTDFTLTINNLQAEDVAIYYCHQYSSHPPTFGHGTRVELR
notes: also called anti-gp41 Ab (7B2); 7B2 parent; source: 293F cells, transiently transfected; purified from supernatant on Protein A agarose
For B1, the binding result is reported as “binds”.
